Among the data in patent US20250340623A1 are Kd, koff and kon values, retold here.

Broadly, the Kd is the concentration at which binding is half-saturated. Low values mean a tighter complex, high ones a looser complex. Broadly, the koff is the rate constant with which the complex falls apart. Higher therefore signals fast dissociation. For orientation: kon means the second-order rate constant of association. Read a low kon as slow association.

For test [1], the target named is alpha-synuclein fibrils, P37840. Nature of the test: SPR, captured mAb. The conditions noted are these: remark: other sources report otherwise. On the technique in general: SPR reads the build-up and loss of mass on a sensor chip optically.
Test [2] addresses monomeric alpha-synuclein, P37840. Put plainly: SPR, captured mAb. The conditions noted are these: remark: other sources report otherwise.

Positions count from the first letter of the chain named.

B1: ACI-7067-1116F2-Ab1 (antibody, V domains shown)
VH: DVQLQESGPGFVKPSQSLSLTCSVTGYSITRGFYWNWIRQFPGNKLEWMGYISDDGNSNYNPSLKNRISITRDTFKNQVFLRLNSVTTEDTATYYCTRGDLLWGQGTTLTVSS
VL: not shown
On to B1, for which, in test [1], the Kd worked out at 55.1 nM, the koff worked out at 0.000458 s⁻¹ and the kon was 8300 M⁻¹ s⁻¹. In test [2], the equilibrium dissociation constant (Kd) turned out to be 4.9 nM, the koff was 0.000232 s⁻¹ and the kon was 47000 M⁻¹ s⁻¹.

B2: ACI-7079-2501B11-Ab3 (antibody, V domains shown)
VH: QVQLQQSGPELVKPGASVKISCKASGYAFSSFWMNWMKQRPGKGLEWIGRIYPGDGDAHYNGEFKGRATLTADKSSSTAYMQLSSLTSEDSAVYFCARKGDFYGSNYDYWGQGTTLTVSS
VL: QAVVTQESALTTSPGETVTLTCRSSTGAVTTSNYANWVQEKPDHLFTGLIGGTNNRAPGVPARFSGSLIGDKAALTITGAQTEDEAIYFCALWYSNHLVFGGGTRLTVL
For B2, in test [1], the Kd was 31.8 nM, the koff amounted to 0.000347 s⁻¹ and the kon turned out to be 10900 M⁻¹ s⁻¹. In test [2], the Kd amounted to 2.4 nM, the koff was determined as 0.000335 s⁻¹ and the kon turned out to be 141000 M⁻¹ s⁻¹.

B3: ACI-8033-19A2-Ab1 (antibody, V domains shown)
VH: EVQLVESGGGLVQPKGSLKLSCAASGFSFNTYAMNWVRQAPGKGLEWVARIRSKSNNYATYYVDSVKDRFTISRDDSESMLYLQMNNLKTEDTALYYCVSESAYWGQGTLVTVSA
VL: DVVMTQTPLSLPVSLGDQASISCRSSQSLVHSNGNTYLYWYLQKPGQSPKLLIYKVSNRLSGVPDRFSGSGSGTDFTLKISRVEAEDLGVYFCSQSTHVPFTFGSGTKLEIK
Take B3: in test [1], the dissociation constant Kd came out at 6.7 nM, the koff is 0.000119 s⁻¹ and the kon is 17700 M⁻¹ s⁻¹. Further, in test [2], the Kd is 6.2 nM, the off-rate (koff) worked out at 0.0828 s⁻¹ and the kon amounted to 1.33e+07 M⁻¹ s⁻¹.

B4: ACI-8033-1A12-Ab1 (antibody, V domains shown)
VH: QVHLKQSGADLVRPGASVKLSCKASGYSFTDFYINWVKQTPGQGLEWIARIYPGNNNTFYNEKFKGKATLSAEKSSTTAYMQLSSLTSEDSAVYFCVVGYYGAWGQGTTLTVSS
VL: B3 VL with Y37H, Y39H, L60F, V90F, F101W, S105G
On to B4, for which, in test [1], the Kd is 9.8 nM, the koff was found to be 6.53e-05 s⁻¹ and the kon was determined as 6660 M⁻¹ s⁻¹. Further, in test [2], the Kd was found to be 31.9 nM, the koff stood at 0.0327 s⁻¹ and the kon amounted to 1.02e+06 M⁻¹ s⁻¹.

B5: ACI-8033-4F3-Ab1 (antibody, V domains shown)
VH: EVQLQQSGPELVKPGASVKISCKASGYTFTDYYMNWVKQSHGKSLEWIGDINPNTGTNSYNQKFKGRASLTVDKFSSAAYMELRSLTSEDSAVYYCARTGYGDPISSYYYALDYWGQGTSVTVSS
VL: DIVMSQSPSSLAVSAGEKVTMSCKSSQSLLNSRTRKNYLAWYQQKPGQSPKLLIYWASTRESGVPDRFTGSGSGTDFTLTISSVQAEDLAVYYCKQSYNLWTFGGGTKLEIK
In test [1], B5 displayed a Kd of 0.05 nM, a koff of 2.24e-07 s⁻¹ and an on-rate constant (kon) of 4500 M⁻¹ s⁻¹. In test [2], this molecule had a Kd of 1.7 nM, a koff of 0.00016 s⁻¹ and a kon of 97000 M⁻¹ s⁻¹.

B6: ACI-8033-17F5-Ab1 (antibody, V domains shown)
VH: EVQLQQSGPELVKPGASVKISCKASGYTFTDYFMNWVKQSHGKSLEWIGDINPNIDVTNYNQKFKGKATLTVDKSSSTAYMELRSLTSEDSAVYYCARGRDYAMDFWGQGTSVTVSS
VL: B5 VL with N99D
In test [1], B6 had a dissociation constant (Kd) of 8.7 nM, a koff of 0.00012 s⁻¹ and a kon of 13700 M⁻¹ s⁻¹. In test [2], the Kd amounted to 2.4 nM, the koff amounted to 0.000232 s⁻¹ and the on-rate (kon) came out at 96600 M⁻¹ s⁻¹.

B7: ACI-7067-1111B12-Ab2 (antibody, V domains shown)
VH: QVQLLQPGTALVMPGASVKLSCKASGYTFTTYWMHWVKQRPGQGLEWIGNINPINGGSNYNEKFKSKASLTVDKSSSTAYMQLSSLTSEDSAVYYCVIAMDYWGQGTSVTVSS
VL: DIQMTQSPSSLSASLGERVSLTCRASQDIGISLNWFQQEPDGTIKRLIYATSSLDSGVPKRFSGNRSGSDYSLTISSLESEDFADYYCLQFASSPLTFGAGTKLELK
B7: in test [1], the Kd stood at 39.2 nM, the koff was 0.00101 s⁻¹ and the on-rate (kon) was found to be 26300 M⁻¹ s⁻¹. In test [2], this molecule returned a Kd of 8.1 nM, a koff of 0.0014 s⁻¹ and a kon of 172000 M⁻¹ s⁻¹.

B8: ACI-7067-1108B11-Ab2 (antibody, V domains shown)
VH: EVQLVESGGGLVQPKGSLKLSCAASGFTFNTYAMHWVRQAPGKGLEWVARIRSKGSNYATNYADSVKDRFTISRDDSQSMLYLQMNNLKTEDTAMYYCVRGHGSSYFSYWGQGTLVTVSA
VL: QIVLTQSPAIMSASPGERITMTCSANSSVTYMHWYQQKSGTSPKRWIYDTSNLASGVPARFSGSGSGTSYSLTISSMEAEDAATYYCQQWKSHPPTFGAGTKLELK
Turning to B8, in test [1], the Kd stood at 18.6 nM, the off-rate constant (koff) worked out at 0.00205 s⁻¹ and the kon came out at 251000 M⁻¹ s⁻¹. For the same molecule, in test [2], the Kd worked out at 8.1 nM, the koff amounted to 0.00154 s⁻¹ and the kon came to 191000 M⁻¹ s⁻¹.

B9: ACI-8033-18C11-Ab1 (antibody, V domains shown)
VH: QVQLQQPGAELVKPGASVKMSCKAAGYTFSSYWITWVRQRPGQGLDWIGDIYPGGGVTNYNEKFKTKATLTVDTSSSTAYMQLSSLTSEDSAVYYCATAQTTFAYWGQGTLVTVSA
VL: DVLMTQTPLSLPVSLGDQASISCRSSQNIVHNNGNTYLEWYLQKPGQSPKLLIYKVSNRFSGVPDRFSGSGSGTDFTLKISRVEAEDLGVYYCFQGSHVPRTFGGGTKLEIK
In test [1], B9 showed a dissociation constant (Kd) of 30.4 nM, a koff of 0.000251 s⁻¹ and a kon of 8270 M⁻¹ s⁻¹. In addition, in test [2], the equilibrium dissociation constant (Kd) stood at 1.8 nM, the off-rate (koff) worked out at 0.000263 s⁻¹ and the kon was determined as 143000 M⁻¹ s⁻¹.

B10: ACI-7089-4409F1-Ab1 (antibody, V domains shown)
VH: DVQLQESGPGLVKPSQSLSLTCSVTGYSITRGYYWNWIRQFPGNKLEWMGYISYDGSNNYNPSLRNRISITRDTSKNQFFLKLKSVTTEDTATYFCARGDSNWGQGTTLTVSA
VL: not shown
As to B10, in test [1], the Kd is 8.8 nM, the koff came to 0.00587 s⁻¹ and the kon is 667000 M⁻¹ s⁻¹. Moreover, in test [2], the Kd is 6.4 nM, the off-rate constant (koff) was 0.000992 s⁻¹ and the kon is 154000 M⁻¹ s⁻¹.

B11: ACI-8033-1F8-Ab1 (antibody, V domains shown)
VH: B10 VH with R31S, Y33F, R65K, T71I, T88S, F95Y, A97V, S101V, N102D, A113S
VL: not shown
In test [1], B11 yielded a Kd of 1010 nM, a koff of 0.000996 s⁻¹ and an on-rate (kon) of 983 M⁻¹ s⁻¹. Further, in test [2], the Kd turned out to be 24.3 nM, the koff stood at 0.000738 s⁻¹ and the kon turned out to be 30400 M⁻¹ s⁻¹.

B12: ACI-7089-4418F6-Ab1 (antibody, V domains shown)
VH: QVQLQQSGAELARPGASVKVSCKASGYTFTSSGISWLKHRTGQGLEWIGDIYPRSGNTYYNEKFKDKATLTADKSSSTAYMELRSLTSEDSAVYFCSSGNYWGQGTTLTVSS
VL: DIVITQDDLSNPVTSGESVSISCRSSKSLLYKDGKTYLNWFLQRPGQSPQLLIYLMSTRASGVSDRFSGSGSGTDFTLEISRVKAEDVGVYYCQQLLEYPLTFGAGTKLELK
As for B12, in test [1], the Kd worked out at 0.04 nM, the koff is 1.14e-05 s⁻¹ and the kon was found to be 272000 M⁻¹ s⁻¹. Moreover, in test [2], the Kd stood at 0.1 nM, the off-rate (koff) was determined as 9.25e-06 s⁻¹ and the kon amounted to 81800 M⁻¹ s⁻¹.

B13: ACI-7088-4303H6-Ab1 (antibody, V domains shown)
VH: EVQLQQSGAELVRPGASVKLSCTASGFNIQDDYMHWVKQRPEQGLEWIGWIDPENGDTEYASKFQGKATLTADTSSNTAYLQLSRLTSEDTAVYYCTTAGSGVQLFDYWGQGTTLTVSA
VL: DILMTQSQKFMSTSVGDRVSVTCKASQNVGTNVAWYQQKPGQSPKPLISSASSRYSGVPDRFTGSGSGTDFTLTISNVQSEDLADYFCQQYNRYPLTFGAGTKLELK
In test [1], B13 yielded a dissociation constant (Kd) of 43.7 nM, a koff of 0.000636 s⁻¹ and an on-rate constant (kon) of 14600 M⁻¹ s⁻¹. For the same molecule, in test [2], the Kd turned out to be 195 nM, the koff stood at 0.0067 s⁻¹ and the kon was determined as 34400 M⁻¹ s⁻¹.

B14: ACI-7067-1108H1-Ab1 (antibody, V domains shown)
VH: EVKLVESGGGLVQPGGSMKLSCTASGFTFSDAWMNWVRQSPEKGLEWVAEIRNKAHNHATNYAESVKGRFTISGDDSKSSVYLQMNNLRAEDTGIYYCTIYSFWGQGTLVTVSA
VL: SIVMTQTPKFLLVSAGDRVTITCKASQSVTNYVAWYHQKPGQSPKLLIYSASNRYSGVPDRFTGSGYGTDFTFTINTVQTEDLAVYFCQQDYRIPYTFGGGTKLEIK
Take B14: in test [1], the Kd was 14.3 nM, the koff was 0.00118 s⁻¹ and the kon amounted to 271000 M⁻¹ s⁻¹. In test [2], the Kd amounted to 4.4 nM, the koff came out at 0.000565 s⁻¹ and the kon came to 131000 M⁻¹ s⁻¹.

B15: ACI-7067-1112H8-Ab2 (antibody, V domains shown)
VH: B14 VH with V5E, T23A, S30T, V48I, H58Y, N61Y, T71D, A90V, F103Y, Q106P
VL: SIVMTQTPKFLLMSPGDRVTMTCTASQSVSNYVAWYQQKPGQSPKLLIYSASNRFTGVPDRFTGSGYGTDFTFTINTVQTEDMAVYFCQQDYTSPYTFGGGTKLEIK
Consider B15, for which, in test [1], the dissociation constant (Kd) turned out to be 18.7 nM, the koff was determined as 0.00245 s⁻¹ and the kon was determined as 285000 M⁻¹ s⁻¹. In addition, in test [2], the Kd worked out at 6.3 nM, the koff is 0.00158 s⁻¹ and the kon is 250000 M⁻¹ s⁻¹.

B16: ACI-7088-4305H7-Ab1 (antibody, V domains shown)
VH: EVQLQQSGAELVRPGASVKLSCTASGFNIKDDYMHWVKQRPEQGLEWIGWIDPENGDTEYASKFQGKATMIADTSSNTAYLQLSSLTSEDTAVYYCKTWGTTQALFPYWGQGTLVTVSS
VL: DIVMTQSQKFMSTSVGDRVSITCKASQNVGTAVGWYQQKAGQSPKLLIHSASNRYTGVPDRFTGSGSGTDFTLTINNMQSEDLADYFCQQYRSYPLTFGAGTKLELK
B16: in test [1], the dissociation constant Kd came out at 8.4 nM, the koff came out at 0.000203 s⁻¹ and the kon is 24200 M⁻¹ s⁻¹. In test [2], the Kd turned out to be 3.4 nM, the koff is 0.0924 s⁻¹ and the kon was 2.73e+07 M⁻¹ s⁻¹.
